Data reported in paper PMC7610652 (Nature structural & molecular biology, 2021).

B1: RPC8, stalk subunit of human RNA polymerase III (natural protein)
chain: MFVLVEMVDTVRIPPWQFERKLNDSIAEELNKKLANKVVYNVGLCICLFDITKLEDAYVFPGDGASHTKVHFRCVVFHPFLDEILIGKIKGCSPEGVHVSLGFFDDILIPPESLQQPAKFDEAEQVWVWEYETEEGAHDLYMDTGEEIRFRVVDESFVDTSPTGPSSADATTSSEELPKKEAPYTLVGSISEPGLGLLSWWTSN
B2: RPC6, subunit of the human RNA polymerase III heterotrimer (natural protein)
chain: MAEVKVKVQPPDADPVEIENRIIELCHQFPHGITDQVIQNEMPHIEAQQRAVAINRLLSMGQLDLLRSNTGLLYRIKDSQNAGKMKGSDNQEKLVYQIIEDAGNKGIWSRDIRYKSNLPLTEINKILKNLESKKLIKAVKSVAASKKKVYMLYNLQPDRSVTGGAWYSDQDFESEFVEVLNQQCFKFLQSKAETARESKQNPMIQRNSSFASSHEVWKYICELGISKVELSMEDIETILNTLIYDGKVEMTIIAAKEGTVGSVDGHMKLYRAVNPIIPPTGLVRAPCGLCPVFDDCHEGGEISPSNCIYMTEWLEF
B3: RPC7α, subunit of the human RNA polymerase III heterotrimer (natural protein)
chain: MAGNKGRGRAAYTFNIEAVGFSKGEKLPDVVLKPPPLFPDTDYKPVPLKTGEGEEYMLALKQELRETMKRMPYFIETPEERQDIERYSKRYMKVYKEEWIPDWRRLPREMMPRNKCKKAGPKPKKAKDAGKGTPLTNTEDVLKKMEELEKRGDGEKSDEENEEKEGSKEKSKEGDDDDDDDAAEQEEYDEEEQEEENDYINSYFEDGDDFGADSDDNMDEATY
B4: RPC10, TFIIS-like subunit of human RNA polymerase III (natural protein)
chain: not shown
B5: RPC4, subunit of the human RNA polymerase III heterodimer (natural protein)
chain: MSEGNAAGEPSTPGGPRPLLTGARGLIGRRPAPPLTPGRLPSIRSRDLTLGGVKKKTFTPNIISRKIKEEPKEEVTVKKEKRERDRDRQREGHGRGRGRPEVIQSHSIFEQGPAEMMKKKGNWDKTVDVSDMGPSHIINIKKEKRETDEETKQILRMLEKDDFLDDPGLRNDTRNMPVQLPLAHSGWLFKEENDEPDVKPWLAGPKEEDMEVDIPAVKVKEEPRDEEEEAKMKAPPKAARKTPGLPKDVSVAELLRELSLTKEEELLFLQLPDTLPGQPPTQDIKPIKTEVQGEDGQVVLIKQEKDREAKLAENACTLADLTEGQVGKLLIRKSGRVQLLLGKVTLDVTMGTACSFLQELVSVGLGDSRTGEMTVLGHVKHKLVCSPDFESLLDHKHR

Tests used:
Assay in all cases: cryo-EM structure
[1] = target: B3
[2] = target: T1, RPC1, subunit of human RNA polymerase III (human, UniProt O14802 1-1390)
T1 sequence: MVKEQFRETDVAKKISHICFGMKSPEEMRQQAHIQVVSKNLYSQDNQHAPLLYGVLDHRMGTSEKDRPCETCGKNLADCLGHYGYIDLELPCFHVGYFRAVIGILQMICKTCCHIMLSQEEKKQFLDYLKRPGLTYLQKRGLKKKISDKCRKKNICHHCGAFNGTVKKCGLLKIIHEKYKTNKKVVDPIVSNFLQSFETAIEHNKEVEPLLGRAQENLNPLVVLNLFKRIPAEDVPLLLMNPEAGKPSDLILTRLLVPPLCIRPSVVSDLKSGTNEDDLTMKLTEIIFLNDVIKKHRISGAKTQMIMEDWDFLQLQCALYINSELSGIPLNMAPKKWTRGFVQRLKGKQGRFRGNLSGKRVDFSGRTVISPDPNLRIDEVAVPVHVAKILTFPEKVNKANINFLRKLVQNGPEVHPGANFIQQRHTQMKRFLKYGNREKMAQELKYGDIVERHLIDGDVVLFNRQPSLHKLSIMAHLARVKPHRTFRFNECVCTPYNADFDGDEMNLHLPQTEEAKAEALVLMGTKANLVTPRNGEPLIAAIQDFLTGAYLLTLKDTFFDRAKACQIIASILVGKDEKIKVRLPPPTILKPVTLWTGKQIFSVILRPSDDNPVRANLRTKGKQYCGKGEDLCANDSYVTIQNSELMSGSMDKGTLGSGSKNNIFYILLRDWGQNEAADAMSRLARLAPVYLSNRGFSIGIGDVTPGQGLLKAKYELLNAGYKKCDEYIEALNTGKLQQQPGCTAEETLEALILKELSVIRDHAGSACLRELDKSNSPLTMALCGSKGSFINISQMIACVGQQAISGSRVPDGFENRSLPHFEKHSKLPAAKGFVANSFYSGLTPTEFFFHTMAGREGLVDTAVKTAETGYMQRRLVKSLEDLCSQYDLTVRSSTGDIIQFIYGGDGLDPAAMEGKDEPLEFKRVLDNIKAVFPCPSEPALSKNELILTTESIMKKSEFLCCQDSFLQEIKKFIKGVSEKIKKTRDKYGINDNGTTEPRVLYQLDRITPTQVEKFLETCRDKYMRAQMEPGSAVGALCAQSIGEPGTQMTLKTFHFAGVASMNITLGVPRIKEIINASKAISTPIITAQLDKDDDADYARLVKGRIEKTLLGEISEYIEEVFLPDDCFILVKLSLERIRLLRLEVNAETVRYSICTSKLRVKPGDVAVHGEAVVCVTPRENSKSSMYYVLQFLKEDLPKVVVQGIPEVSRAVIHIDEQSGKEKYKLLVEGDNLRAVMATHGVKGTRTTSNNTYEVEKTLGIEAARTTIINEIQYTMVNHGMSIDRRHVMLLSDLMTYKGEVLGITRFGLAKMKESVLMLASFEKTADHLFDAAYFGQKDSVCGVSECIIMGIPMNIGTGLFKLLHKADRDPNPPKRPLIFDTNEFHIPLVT

[3] = target: T2, RPC3, subunit of the human RNA polymerase III heterotrimer (human, UniProt Q9BUI4 1-534)
T2 sequence: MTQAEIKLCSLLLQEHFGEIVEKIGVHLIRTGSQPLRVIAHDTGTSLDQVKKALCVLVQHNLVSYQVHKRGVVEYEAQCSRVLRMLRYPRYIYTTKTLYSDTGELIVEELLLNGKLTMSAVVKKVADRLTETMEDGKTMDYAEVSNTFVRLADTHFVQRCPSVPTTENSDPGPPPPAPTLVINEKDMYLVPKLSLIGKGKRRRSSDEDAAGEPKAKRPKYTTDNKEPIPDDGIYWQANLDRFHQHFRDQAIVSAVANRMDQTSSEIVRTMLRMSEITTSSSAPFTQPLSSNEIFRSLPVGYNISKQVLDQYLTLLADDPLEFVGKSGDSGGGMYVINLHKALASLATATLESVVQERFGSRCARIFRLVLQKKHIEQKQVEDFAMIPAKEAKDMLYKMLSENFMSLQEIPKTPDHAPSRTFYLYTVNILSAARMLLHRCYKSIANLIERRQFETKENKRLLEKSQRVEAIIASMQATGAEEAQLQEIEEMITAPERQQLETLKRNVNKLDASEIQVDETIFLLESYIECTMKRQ

[4] = target: B5
[5] = target: T3, RPC5, subunit of the human RNA polymerase III heterodimer (human, UniProt Q9NVU0 1-708)
T3 sequence: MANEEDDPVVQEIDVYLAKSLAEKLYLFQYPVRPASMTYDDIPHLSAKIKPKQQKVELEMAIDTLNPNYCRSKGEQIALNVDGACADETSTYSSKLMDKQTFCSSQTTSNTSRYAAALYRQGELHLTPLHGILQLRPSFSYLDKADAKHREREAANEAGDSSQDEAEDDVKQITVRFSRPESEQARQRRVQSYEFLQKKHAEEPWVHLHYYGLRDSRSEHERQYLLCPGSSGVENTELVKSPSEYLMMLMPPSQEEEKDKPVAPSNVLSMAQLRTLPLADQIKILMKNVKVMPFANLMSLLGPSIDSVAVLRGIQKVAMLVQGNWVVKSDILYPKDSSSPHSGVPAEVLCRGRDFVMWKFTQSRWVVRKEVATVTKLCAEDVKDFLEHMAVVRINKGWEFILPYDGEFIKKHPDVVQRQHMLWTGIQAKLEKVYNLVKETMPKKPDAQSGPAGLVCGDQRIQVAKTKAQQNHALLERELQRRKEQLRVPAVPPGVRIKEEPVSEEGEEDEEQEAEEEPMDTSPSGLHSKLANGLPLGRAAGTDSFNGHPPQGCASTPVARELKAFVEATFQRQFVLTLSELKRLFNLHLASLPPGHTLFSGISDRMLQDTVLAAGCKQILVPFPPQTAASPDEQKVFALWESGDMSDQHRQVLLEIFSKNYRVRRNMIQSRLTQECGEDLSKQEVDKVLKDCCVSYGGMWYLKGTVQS

B1: binds [1].

B2: binds [2]; binds [3].

B3: binds [2]; binds [3].

B4: binds [2]; binds [4]; binds [5].

B5: binds [2]; binds [5].
